Earlier results as cited in publication PMC5806463.
pKd: −log10 of the molar value.

Biological target: IL-18BP (Homo sapiens) (UniProt O95998)
Sequence (O95998 31-194): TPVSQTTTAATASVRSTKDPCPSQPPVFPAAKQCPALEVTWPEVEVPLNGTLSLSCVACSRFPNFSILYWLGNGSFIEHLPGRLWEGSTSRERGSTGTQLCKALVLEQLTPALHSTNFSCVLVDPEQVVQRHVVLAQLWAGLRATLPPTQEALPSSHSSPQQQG

IL-18, sequence (Q14116 37-193): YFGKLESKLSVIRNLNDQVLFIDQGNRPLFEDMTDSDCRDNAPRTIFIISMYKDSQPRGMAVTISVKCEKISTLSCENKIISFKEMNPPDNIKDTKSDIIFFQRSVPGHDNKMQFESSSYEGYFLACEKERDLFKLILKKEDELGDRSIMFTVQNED

In the case of IL-18 (from UniProt Q14116), the pKd is given as 9.40.
